Test [1] concerns the target CD45. In words: flow cytometry of PBMCs stained with four mouse IgG1 primaries, each pre-labelled with an anti-mouse IgG1 linker; plot CD3 against CD45: upper left 0.03, lower left 0.14. (In general: In flow cytometry, cells or beads pass a laser one at a time.)
Test [2] addresses CD45. In words: flow cytometry of PBMCs, co-staining in the BSA series, 10% BSA; left quadrants 0.00 and 0.01.
The target of test [3] is CD45. In words: flow cytometry of PBMCs stained at once with mouse IgG1 anti-CD45 (linker-488, FITC), mouse IgG2a anti-CD3 (linker-555, PE), mouse IgG2b anti-CD4 (linker-647, APC); left plot: Q5 0, Q8 0.21.
Test [4] deals with CD45. The experiment in a line: flow cytometry of PBMCs, co-staining in the BSA series, 0% BSA; left quadrants 0.00 and 0.01.
The target in test [5] is CD45. The experiment in a line: flow cytometry of PBMCs, co-staining in the BSA series, 20% BSA; left quadrants 0.00 and 0.00.
Test [6] has as its target CD8. In words: same staining; plot CD8 against CD4: upper right 0.30, lower left 11.12.
Test [7] deals with CD8. The experiment in a line: same staining; plot CD8 against CD3, all events CD3-positive: upper left 0.00, lower left 0.00, lower right 71.27.
In test [8] the target is CD3 (Homo sapiens (Human)) (UniProt P07766). In words: flow cytometry of PBMCs, FSC-H against APC-A, No Quencher; Q4 100.0.

For CD45 (65109-1-Ig) (antibody), the % of cells, lower right quadrant (CD45-positive, CD3-negative) came to 28.5% with CD45 [1], 46.1% in the test with CD45 [2], 47% with CD45 [4] and 45.7% with CD45 [5]. Further, in the test with CD45 [1], the % of cells, upper right quadrant (CD3+/CD45+) came to 71.4%. The % of cells, upper right quadrant (CD45-positive, CD3-positive) was found to be 53.9% with CD45 [2], 52.9% in the test with CD45 [4] and 54.3% with CD45 [5]. Also, the Q6 (% of cells, FITC-positive and PE-positive) with CD45 [3] turned out to be 55.4%. The same substance had a Q7 (% of cells, FITC-positive and PE-negative) with CD45 [3] of 44.4%.
Consider CD8 (65144-1-Ig) (antibody), for which the % of cells, upper left quadrant (CD8-positive, CD4-negative) in the test with CD8 [6] turned out to be 28.4%. Also, in the test with CD8 [7], the % of cells, upper right quadrant (CD3+/CD8+) was 28.7%.
mouse IgG1 isotype control (antibody) came in with a Q3 (% of cells, APC-positive) in test [8] of 0.025%.

Values taken from patent publication US20250155429A1.
